Measured values: publication PMC9413769

Target: eGFP-Unr (UniProt O75534)
Assay: FRET or BRET

UniProt O75534, sequence (O75534 whole entry): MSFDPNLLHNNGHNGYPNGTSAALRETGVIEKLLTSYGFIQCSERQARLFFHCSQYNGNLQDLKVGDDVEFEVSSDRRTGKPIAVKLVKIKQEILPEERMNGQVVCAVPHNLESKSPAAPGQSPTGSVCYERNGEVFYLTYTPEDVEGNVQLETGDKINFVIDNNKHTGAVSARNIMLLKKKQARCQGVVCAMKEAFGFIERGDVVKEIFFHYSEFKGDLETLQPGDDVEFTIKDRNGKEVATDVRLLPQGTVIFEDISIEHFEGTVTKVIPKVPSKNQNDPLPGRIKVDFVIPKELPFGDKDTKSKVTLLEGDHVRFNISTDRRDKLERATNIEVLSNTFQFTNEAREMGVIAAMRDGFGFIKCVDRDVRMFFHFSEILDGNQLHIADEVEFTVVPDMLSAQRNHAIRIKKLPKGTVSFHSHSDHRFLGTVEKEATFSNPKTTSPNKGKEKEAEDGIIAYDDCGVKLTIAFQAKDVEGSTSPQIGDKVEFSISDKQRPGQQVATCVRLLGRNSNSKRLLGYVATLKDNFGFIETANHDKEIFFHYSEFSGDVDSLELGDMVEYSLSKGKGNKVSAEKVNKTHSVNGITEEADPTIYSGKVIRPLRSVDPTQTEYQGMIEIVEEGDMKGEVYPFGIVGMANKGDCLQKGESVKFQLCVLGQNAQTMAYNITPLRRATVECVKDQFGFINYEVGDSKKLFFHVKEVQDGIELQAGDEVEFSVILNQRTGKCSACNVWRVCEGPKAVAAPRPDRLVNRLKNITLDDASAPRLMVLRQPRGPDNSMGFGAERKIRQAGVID

Substance: GagG2A-mCherry (natural protein)
- FRET efficiency (one-population analysis): 7.5%
- FRET efficiency of the interacting population (two-population analysis): 46%
- percent of eGFP-Unr interacting (two-population analysis): 25%

Substance: NCp7-mCherry (natural protein)
- FRET efficiency of the interacting population (two-population analysis): > 35%
- average FRET efficiency (one-population analysis): 5.1%
- percent of eGFP-Unr interacting (two-population analysis): 21%

Substance: mCherry-NCp7 (natural protein)
- FRET efficiency of the interacting population (two-population analysis): > 35%
- average FRET efficiency (one-population analysis): 6.8%
- percent of eGFP-Unr interacting (two-population analysis): 26%
